Experimental data as given in the supplement of paper PMC12764529.
± gives the half width of the 95% confidence interval.

Legend:
[1] = folding stability dG unfold from trypsin proteolysis; higher = more stable
Summary of the method: (§1)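 Designed mini-proteins (under 80 residues, no cysteine) in a PA-tagged cDNA display construct were digested with trypsin and chymotrypsin. Each protease was used at 11 concentrations (threefold dilutions) plus a no-protease condition, followed by sequencing. K50 was inferred by Bayesian fitting of sequencing counts, and unfolding free energy was derived against a sequence-predicted unfolded-state K50 and a shared folded-state K50, per protease or combined. Only designs with AlphaFold2 dimer inter-PAE above 15 were kept.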

[2] = folding stability dG unfold (combined trypsin and chymotrypsin); higher = more stable
Summary of the method: as §1

[3] = folding stability dG unfold from chymotrypsin proteolysis; higher = more stable
Summary of the method: as §1

Row | Sequence | folding stability dG unfold [1] | folding stability dG unfold [2] | folding stability dG unfold [3]
1 | SAGGEIEVEVLEVDPETGEVLLKITFDAEPEVIDFLVSLGFDPEHISDDGDGKVTAIVRAPPDLTIASAGGS [r16_755_TrMRF] | 2.21 ± 0.087 kcal/mol | 2.79 ± 0.09 kcal/mol | 3.02 ± 0.061 kcal/mol
2 | SAGGEKEEIIKKLSKYPKNYRVLLKSPDGTLYEYSSPEEVIKMPLTLPNGKEVIIVKISPEKSPKLLSAGGS [r16_680_JUSTAS] | 0.438 ± 0.091 kcal/mol | 0.758 ± 0.099 kcal/mol | 0.836 ± 0.098 kcal/mol
3 | SAGGEKKVLIVKVEIKLINNGGEFEAEFVFPEDVTLEEILAKVKELLPPGAKAEIKIKEIKLVSEDGSAGGS [r16_393_TrMRF] | 3.93 ± 0.18 kcal/mol | 3.58 ± 0.39 kcal/mol | 2.76 ± 0.15 kcal/mol
4 | SAGGEKLETFPFKGDDDREVTLVRFEGEDRILLLVYDPDTDKVLLIAPDAIAEIDLKTGEAKVILKKSSAGG [r13_416_TrMRF] | 1.66 ± 0.046 kcal/mol | 1.98 ± 0.049 kcal/mol | 2.111 ± 0.016 kcal/mol
5 | SAGGEKVVLEIVLPPELENLTPEELEALKNITLPNGFKITDIELVEENGRLVIRITVDSPEAAEALLKSAGG [r13_269_TrROS_Hall] | 2.04 ± 0.086 kcal/mol | 2.19 ± 0.22 kcal/mol | 2.23 ± 0.056 kcal/mol
6 | SAGGELENLTVEELKALLEELFPDVEVKVTVEKLPEGYYRITVEIRVRLPNGETRRFELELVIRLEDSAGGS [r16_564_TrROS_Hall] | 4.03 ± 0.23 kcal/mol | 5.22 ± 0.28 kcal/mol | 5.36 ± 0.25 kcal/mol
7 | SAGGELPLSDITVESESPVTGGSWTVTLEVPSLGLRITVPAAELGAVAASTPGVATSLSPVSPAEPASAGGS [r16_61_JUSTAS] | -0.251 ± 0.11 kcal/mol | 0.225 ± 0.091 kcal/mol | 0.454 ± 0.093 kcal/mol
8 | SAGGELSEEFVKKLFENLGFEELEVVDLENKKVAYFRKGNYLVKVYDDGTIEIFDENGELVETINVDSAGGS [r8_147_TrMRF] | 2.26 ± 0.12 kcal/mol | 3.48 ± 0.19 kcal/mol | 3.89 ± 0.053 kcal/mol
9 | SAGGELTEEQRKRLEEERRRREEEERRRQAAPVKVTVTVEFDPETGEVRVRVFNENGELVAEARFKVESAGG [r13_247_TrROS_Hall] | 2.08 ± 0.092 kcal/mol | 3.17 ± 0.19 kcal/mol | 3.77 ± 0.14 kcal/mol
10 | SAGGEPGALSSSTYTITAPAKSVSKTVTVSYNPADGTATITFPESGKTITVPAVSDEEVLALIKEILLSAGG [r13_439_JUSTAS] | 0.697 ± 0.025 kcal/mol | 0.322 ± 0.065 kcal/mol | -0.67 ± 0.31 kcal/mol
11 | SAGGEPLFGGSFSAEPYRTADGRLVYIVPEVTLPNGRKARAAVIYDPSTGRPIVVLYLGDKPIVLDASAGGS [r16_766_TrMRF] | 1.889 ± 0.017 kcal/mol | 2.24 ± 0.026 kcal/mol | 2.41 ± 0.039 kcal/mol
12 | SAGGEPVLVPVKGTFENPELGVKVEVEAYFFPEFDFALVNVKVTPYSPDGKPLEVEGTFVVSVSELLKSAGG [r13_807_TrMRF] | 2.02 ± 0.082 kcal/mol | 2.75 ± 0.12 kcal/mol | 3.16 ± 0.086 kcal/mol
13 | SAGGERERLLTLEVEIDVPPGVSPEEIAARLAALLPPGAEIERVEIRYDPATRKITVRVVIRLPEGLSAGGS [r16_396_TrROS_Hall] | 3.59 ± 0.25 kcal/mol | 3.25 ± 0.29 kcal/mol | 2.78 ± 0.093 kcal/mol
14 | SAGGERKVKIEVMWNPDDPNYYMISVKFPGQERQFMIDPNDPERIIEFLEDLLGPGYKVDDIEIHPFRSAGG [r13_519_TrROS] | 1.562 ± 0.012 kcal/mol | 1.67 ± 0.051 kcal/mol | 1.61 ± 0.053 kcal/mol
15 | SAGGETIPVVMYDPSTGKELTGEIPLKEALDLLAAGKKTAFIPAGGGPVKVHIEPLPDGTVLIVAESGSAGG [r13_171_TrMRF] | 0.576 ± 0.026 kcal/mol | 0.636 ± 0.045 kcal/mol | 0.71 ± 0.021 kcal/mol
16 | SAGGETLEVKLKNGYLLRIDLETGKVEVRPLKPVKIELKIEVKPPPVEVKLEKEIKLEKKIEVKVEFSAGGS [r16_453_TrROS_Hall] | 1.82 ± 0.19 kcal/mol | 2.15 ± 0.18 kcal/mol | 2.51 ± 0.062 kcal/mol
17 | SAGGEVEVKEITMTAEELRELIEELKKEGYLVVIENKTGEKKVIPVKEDDLKPGDEVKIRVFKLKKPSAGGS [r16_31_TrROS_Hall] | 0.537 ± 0.14 kcal/mol | 0.733 ± 0.31 kcal/mol | 0.691 ± 0.39 kcal/mol
18 | SAGGEVKITVEKKGDGTVTVTITVKAKSLEDLLKALESLPGVEITKVEIEKDKETNEYTIRVTIKVKPSAGG [r13_796_TrROS_Hall] | 2.67 ± 0.068 kcal/mol | 3.64 ± 0.15 kcal/mol | 4.07 ± 0.11 kcal/mol
19 | SAGGEVRIEVEIEVDPETGTVTVRAKIERDGKLFEVEMTLRVEPEEKPEKAPEVTVTVTVVFKPEGKSAGGS [r16_108_TrROS_Hall] | 3.01 ± 0.26 kcal/mol | 2.78 ± 0.34 kcal/mol | 2.54 ± 0.076 kcal/mol
20 | SAGGFEITEEREAVKTSPPEGPLRVEERLVIEVKSEDPEKALEEAQKETGLPVEVEVDPETGSVTITVRSAG [r5_907_JUSTAS] | -0.523 ± 0.56 kcal/mol | 0.448 ± 0.18 kcal/mol | 0.766 ± 0.11 kcal/mol
21 | SAGGFKIERDPEDGQVTITFPMPGFGMPFRISIPYDPNGDIDVDIEPSPGMPPHHRDMIENLARELADSAGG [r13_139_TrROS] | 0.656 ± 0.16 kcal/mol | 0.562 ± 0.13 kcal/mol | 0.281 ± 0.43 kcal/mol
